{
  "source": "paper PMC8580882",
  "target": "Cyclosorus parasiticus chalcone synthase 1 (CpCHS1) (Cyclosorus parasiticus)",
  "assay": "crystal structure; sitting-drop vapor diffusion at 20°C; 0.2 M sodium chloride, 0.1 M Tris-HCl pH 8.0, 20% w/v PEG 4000; apo form at 1.9 Å, complexes with naringenin and with naringenin + CoA at 2.4 Å; molecular replacement with 6DXB",
  "data": [
    {"substance": "Cyclosorus parasiticus chalcone synthase 1 (CpCHS1) (enzyme)", "values": [
      {"measurement": "stoichiometry N", "value": 2}
    ]}
  ]
}
